The assay concerns the target T1, TNKS2 ARC5 (Homo sapiens, UniProt Q9H2K2).
T1 construct: followed by TNKS2 ARC5 (1 μL, 100 μM stock); His6-GST; made in house; host or cells: E. coli
T1 sequence (Q9H2K2 whole entry, looked up): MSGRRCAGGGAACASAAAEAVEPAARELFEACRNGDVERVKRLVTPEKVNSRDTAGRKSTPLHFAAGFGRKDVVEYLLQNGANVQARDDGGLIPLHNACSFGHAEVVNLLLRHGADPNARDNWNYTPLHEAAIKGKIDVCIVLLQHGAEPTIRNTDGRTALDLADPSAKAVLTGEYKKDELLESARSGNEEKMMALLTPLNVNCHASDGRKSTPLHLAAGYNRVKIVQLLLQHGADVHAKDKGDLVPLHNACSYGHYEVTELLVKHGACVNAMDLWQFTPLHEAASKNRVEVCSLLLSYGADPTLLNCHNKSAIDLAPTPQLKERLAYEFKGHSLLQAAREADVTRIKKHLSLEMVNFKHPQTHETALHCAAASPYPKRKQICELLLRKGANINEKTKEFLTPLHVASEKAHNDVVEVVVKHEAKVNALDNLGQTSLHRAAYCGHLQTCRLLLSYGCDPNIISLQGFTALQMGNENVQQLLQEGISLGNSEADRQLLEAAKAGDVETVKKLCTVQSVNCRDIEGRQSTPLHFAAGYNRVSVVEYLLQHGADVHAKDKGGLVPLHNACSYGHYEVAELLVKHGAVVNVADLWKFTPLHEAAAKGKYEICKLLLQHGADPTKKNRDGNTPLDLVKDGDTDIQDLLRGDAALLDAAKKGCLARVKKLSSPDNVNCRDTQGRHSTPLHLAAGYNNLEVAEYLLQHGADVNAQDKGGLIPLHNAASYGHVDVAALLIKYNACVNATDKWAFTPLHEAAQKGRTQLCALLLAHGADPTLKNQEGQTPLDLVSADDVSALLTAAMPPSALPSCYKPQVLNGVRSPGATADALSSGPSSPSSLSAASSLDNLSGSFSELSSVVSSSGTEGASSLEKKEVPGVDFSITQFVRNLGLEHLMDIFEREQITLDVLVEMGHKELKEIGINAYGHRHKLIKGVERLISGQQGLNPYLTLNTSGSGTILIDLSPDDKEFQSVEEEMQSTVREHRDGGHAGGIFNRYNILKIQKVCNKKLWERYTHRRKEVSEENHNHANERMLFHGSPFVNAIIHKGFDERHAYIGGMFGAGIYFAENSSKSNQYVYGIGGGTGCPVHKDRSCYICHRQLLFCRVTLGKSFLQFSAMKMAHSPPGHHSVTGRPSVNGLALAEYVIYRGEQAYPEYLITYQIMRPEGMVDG
Nature of the assay: Differential scanning fluorimetry (DSF, thermal shift). It counts as binding. The following applies: ARC 20 μM + 3BP2 TBM peptide 200 μM, inflection point method. The method, then:
Therefore, we chose TNKS2 ARC5 for screening by DSF, anticipating the largest signal window for measuring changes in Tm upon fragment binding.
We screened 1869 compounds in duplicate at a concentration of 500 μM, which we considered a reasonable compromise between having a sufficiently high concentration to identify weak binders while minimising the likelihood of false positives through fragment precipitation/aggregation and non-specific binding. The final DMSO concentration was 5%. We calculated melting temperatures using both the inflection point and the maximum peak of first derivative data methods. Both methods generally agreed, unless the melt curve was biphasic or misshapen, with slightly lower variability for the […] Tm determination method (see Materials and Methods for experimental and analysis details).
We determined the melting temperature for the unbound ARC (Tm, 0) from the mean of 12 reference melting curves per plate, with 5% DMSO only. We calculated the change in melting temperature (ΔTm) by subtracting the mean Tm, 0 from Tm, compound. We tested compounds in duplicate, defining fragments as hits if they conferred a ΔTm outside two standard deviations (2σ) from the mean, in one or both replicates. To check for consistency between plates, we ran triplicate peptide controls; however, we excluded peptide ΔTm values from the calculation of the mean ΔTm to avoid skewing the results. We observed mean ΔTm values (IP/1st derivative methods) of −0.127/−0.331 °C and σ as 0.997/1.19 °C. A hit cut-off of 2σ gave absolute shifts of +1.87/+2.05 °C for compounds that stabilised and −2.13/−2.71 °C for compounds that destabilised the ARC (Fig. 2B).
For the screen, a C1000 thermal cycler (Bio-Rad) was used to record melt curves. SYPRO Orange was purchased as a 5000 × stock in DMSO from Sigma Aldrich. The ICR fragment library was available as 100 mM stocks in DMSO, and dispensed (25 nL) using an ECHO acoustic liquid handling system into white 384-well PCR plates (Framestar, 4titude). Wells were backfilled with DMSO (225 nL). Buffer (2.75 μL, 25 mM HEPES-NaOH pH 7.5, 100 mM NaCl, 2 mM TCEP) was added, followed by TNKS2 ARC5 (1 μL, 100 μM stock) and then SYPRO orange dye (1 μL, 25×). The plate was centrifuged after the addition of each reagent (1 min, 1000 × g). Final assay concentrations were as follows: TNKS2 ARC5 (20 μM); fragment (500 μM); SYPRO Orange dye (5×); DMSO (5% v/v) in a total volume of 5 μL. Peptide control wells (3BP2 TBM 16-mer, 200 μM, sequence LPHLQRSPPDGQSFRSW with C-terminal tryptophan added for photometric concentration measurements, the N-terminus acetylated and the C-terminus amide-capped) were plated in triplicate, and there were 12 blank wells per plate, with DMSO only (250 nL, 5% v/v). Melt curves were recorded from 20–95 °C, with the temperature ramped by 0.5 °C every 15 s. Data were analysed using Vortex (Dotmatics) software and melting temperatures calculated from both the inflection point and the maximum peak of 1st-derivative data. Data points were excluded if the melt curve was poor, i.e., if there was no fluorescence signal above baseline, high fluorescence intensity throughout, or if the melt curve was shallow (<1000 rfu difference between baseline and peak maximum). The unbound melting temperature was determined from the mean of 12 reference melting curves, with 5% DMSO only. The change in melting temperature (ΔTm) was calculated by subtracting the mean Tm, 0 from Tm, compound. Compounds were tested in duplicate, and fragments were defined as hits if they gave a ΔTm outwith 2 σ from the mean in one or both replicates.
For the experiment shown in Fig. 2A, ARC and 3BP2 TBM peptide concentrations were 20 and 200 μM, respectively, in 50 mM HEPES-NaOH pH 7.5, 100 mM NaCl, 2 mM TCEP and a total volume of 25 μL. SYPRO Orange was added at 5×. Data were recorded from 4–95 °C, with the temperature ramped by 0.5 °C every 15 s, using a CFX384 thermal cycler (Bio-Rad). […]

As usually defined, the ΔTm is the shift of the melting midpoint relative to a reference. For the sequence “LPHLQRSPPDGQSFRSW [3BP2 16-mer peptide, 16-mer TBM peptide derived from 3BP2, W added for A280, N-terminus acetylated, C-terminus amide-capped; positive control, reference compound]”, the shift in melting temperature (ΔTm) was 4.14 °C.
